# pKd: −log10 of the molar value. Like-named read-outs stand apart in the source and are kept apart here.
# Key:
# [1] = biological target: histone H4 (Homo sapiens) (UniProt P62805); details: cited from earlier work
# [2] = biological target: histone H3 (Homo sapiens) (UniProt P68431); details: cited from earlier work
# [3] = biological target: histone H3 from calf thymus histones (UniProt P68432); experiment: GST pull-down, immunoblot with α-H3, band level printed under lane; details: calf thymus histones (CTH); CTH input 5%
# [4] = biological target: histone H3 (Homo sapiens) (UniProt P68431); details: cited from earlier work; remark: listed apart in the source
substance,measurement,setting,value
53BP1 tandem TUDOR domain (from UniProt Q12888),pKd,[1],4.70
same,pKd,[2],2.70
GST-ING3PHD (PHD domain of the H3K4me3 reader ING3) W385A,response,[3],0.3
EED WD40 (from UniProt O75530),pKd,[4],< 3.40
